This data set can be described thus: protease stability score; higher = more stable; yeast display proteolysis, trypsin and chymotrypsin.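 Further: log10 excess protease needed over predicted unfolded state with 0 meaning unfolded.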

The sequence “DEEEEKQLEDIWKENDWQKWANDADPNVRVNIGDETLHGREDLQRWAQLVRKRYDHVKIESVRFHNGRADVEVNVVVDGEQFRYKLTIQLHNGRVKHMKIQATDEQVKTLLDQMRS” registered a protease stability score of 1.59. In the case of “DEEEEKRMTKILEHNDFHKLADNADPNVQINIGDKHIHGRDQAQTFFKQMQKAADHWSIRTMNVRNGHIVVDLVMNVNGQNIRFNLRIERRNGHIKSASVQFTDPDQKRQFDENRS” it was 0.599; in that of “DEEEELRRAVKAIKQYMTGNEQEVSKMADPNVKIQVGEKRIHGREQLRQEVKRLHDTVDHIEVLSITHTGNSAQVDARVEVDGRVQRFVLRVVMHNGRITSIVVEVTDEDRFKNMVK”, 1.2. As for “DEEEFKKHAEQVIRILEHGDPDQMKKNADPNAKIEVGDRTYHGHDRMREFVKRLRDRVDHMSVETWSAHNGRIHIHFRVDINGKDVRVVMQLTVDNGKIKRLRVKSG”, the protease stability score was found to be 0.914. The same measure for “DEEEHAKEFVKRLDKVNKKNDEESFEDLADENATFRYGDKTYRGREDMRKLVQDLRKRADHADVKLTRLELHNGQVRAEIDMRFRHDGRTHKDVFDAQLKVTNGTVKLTNLNQS”: -0.059; for “DEEEHAKQFLDKMHRAFENNNKDEVRKLADENARFEYGDKTYHGDEEFAKWMREIRERVDRVEMDLRSIEREGEKLNIRFEVKYKHNGNSDTQRWVFVIKHHNGDYVIEKLREQ”: 1.22; for “DEEEHFRKWVHEFIKILETGDPDQAKKMMDPNVRETVGDKSLHGHDQMVREIEKRRESIDHVNFDIKDYRIQGNHFVLDLKVNEVHNGKEITRRLEVDASTQGDKLYVNEIRLS”: -0.146. “DEEEIATENAQRFINAVNKNNPDEFVKNMDEDVRIEYGDKVVHGRSQAKHLANEMVDKVDHLTARITDFKVHNGEVDVNVRITFRHNGRNDTHHVRLHLQVHNGRLHIQSMKWS”: the protease stability score was -0.412. Sequence “DEEEIEDVARKLNTGNKDDMRELADKDVKAQVGDKEVHGRENLVRIMKRLKDQADHIKVDEVHVQGNRIQVRFQMNINGTTFDVSFVAKVSNGHIKYFSLRARDPRLDEKILRILK” registered a protease stability score of 0.493. In the case of “DEEEIHTMLEVLKQNDEQTLQDLFDENAKISVGEFRFHGRDEAIEFAREFNKAVDHVHYKRVDVQGNRARVKMQLNVNGKNIDVVVKVEIHNGRIKSLRIDVRDEQLRRDLEEAFR” it was 1.71. In the case of “DEEEIRHINRKLLKALQEGNEHEVAKLADKDASFDIGDKTYNGRHQVRNMIRKIRSQVDHMTVERMSISNGRIFVFIVFEINGRTRRTNQVVEVKNGRIKEVHVKET”, the protease stability score was determined as 0.145. For the sequence “DEEEIRMILDVIRARESGDEDRLHELLDKDVEFQVGEKTYHGREEIVRQVLQERREMQYSVNVKTVRDHNGVADIKAEFHFLYNGRPMNIDVEIHAHAHNGSVVNFRVRVDPKQMDDFKT”, the protease stability score was found to be 1.26.

“DEEEKAEHVADEVRHALKRGDEDRLMNLMDENVRVEVGDKTIHGREEVRKELHRISKDFDHVDAKVKSIKVTNGNVIIIMDVKQNVNGRTRRFEVSMILDVKGDKARIQHIKND” yielded a protease stability score of 1.11. For the sequence “DEEEKAREQQEEFQKALEKNDKEKIKNYFDPNVRVHVGDKTLHGREDVAERLIQLAQHVDHIQVEIKKLDVRNGRIDVDVVVVFERNGQRSTQRFKITMKINNGRAYVQHMKQS”, the protease stability score was 0.109. “DEEEKAREYNKTIRQVWHDNNEEDMMRLADENARLEYGDKQLHGRENFRKRQHDIHRRVDKVDVDVKRVEVHNGKFKAQFTFTLVSNGENNKRLYILVAQLHGDKFRIKQIVEQ” displayed a protease stability score of 0.099. In the case of “DEEEKKKKAEHAAKAFVTGDEERMNQLASPDVTATVGDQRVHGRDDMNKLLQEFKRQADHVELKSFRNDENHVTIHVRVNHNGKMDKFVVNIRMHNGQVKIIHQTSS” it was -0.289. Turning to “DEEEKKRQQEEIERLLHTGDHDRFSELMDKDVKMDVGEDRVHGRENVAKHLADEMKRIDHVNVQSVDVKGEKFDFSAQFRVNGQTVQRVIIMVQKNGKWKELSITVTDDDQLKRVES”, the protease stability score stood at 0.092. In the case of “DEEELDNAKEMVKALLHGNPDRAKQLADPNAHYHVGDKKVHGNDNWAKLVRKERQELRVKIDRVDIKSKGNKVSVDIDVVHDHNGQPQKRNYRLHVEIHNGKVRNVKIQHDG”, the protease stability score is 0.066. Consider “DEEELDRLQKQLERNDWETFVRQADENVKVKYGDRSLHGHEDFNKYMKRLHDQVDHYQLNRVTNHGDHLQARVVFRFNGQNIDMTFEVRVHNGRIQEVVFHFTDPRTHKQFKENMD”, for which the protease stability score turned out to be 1.42. The same measure for “DEEELEKINQLIKTNDFQQLRQDADPNVQVEYGDKSYHGRENLTKNMREFEKMVDHVQLKDYRVKGEKLEADMVATVNGREIRFTLSMNVHNGKIKQISLKYRNEDQKRRMEEALN”: 0.922; for “DEEELEKMAEKVIKMLRSGDPRQAVRMMDENAHVEYGDKTYHGREDAERAVKQWTDHFDKVRVVHVDVHNGTVNVDMEINHNGRVERYVVRVEVHNGRVKHLVVKSS”: 1.2; for “DEEELERQAQELVDAWQTNDESKIRHLVDENARVQVGDTTWKGREKAEEQVQEFKKQVDRLRVISVRVHGENIVVHVEIVHNGKHFSLTIVIEMHNGKVKHISVDPKAVEIATK”: 0.497. The sequence “DEEELETMRRILKENDWETIAHNADKDVKMTVGDKTIHGRENVRHWVKKWQKNVDHIDVESIDVQGDRIDMVARNVVNGKTMKLVFHINVHNGHVQEIELRARNEKDEELLRKAEG” displayed a protease stability score of 1.3. As to “DEEELKDVLKKFSKNDEDFFKDLADKDARAVYGDKEVHGREEMSDLWRILKEQVDHMHINHMKLQGDRIVVDFTMTINGQEYVNVQELKFQNGKLQEVVVKVTDEEQMKRLLKIEK”, the protease stability score was 0.298. As for “DEEELKDWLRNAREIWETGNPDQMEELADPDASIQVGDRTYHGSDEYKKWVEDMHRHADHIEVKEVSIRGDKVHIQVVINVNGRNFTFEFELRVRNGRVKQFNFDPDRMEEIKK”, the protease stability score is 0.574.

With “DEEELKHINRELVEVAKTGNPDEWRKLMRKDVTMHVGDKTYHGREKVREHAKTLRDRIDHINVRSVSATGDKVVLNFEAKVNGQTRTYQFQARVHNGRIVSAHINER”, the protease stability score was 0.006. Sequence “DEEELKHLMKVQTTGDPDKYEEMADKDVKAKIGDETYHGRETVLTQLRRMLTQIDHLEVKNVDTQGDKVNLRAVANYNGQELDVIYVLVVHNGRVDNMEIDARDEKVEDQLRQAMS” returned a protease stability score of -0.348.

With “DEEELKHVAELILKGDEKELSKMMDEDVRVHIGNKEYHGREQAEEAVKTLVDRADHFQVHDMRTSEGQIHVQLVVNINGENVNMYFVAEVHNGRIKEISARARDPREEEKFNKLLG”, the protease stability score was 1.68. Sequence “DEEELKKHAHNLMRAMQTGDPDKVEEYFDPDAEYTVGDQTYRGREDMREWFEEVRRQVDHNQINDVRNSENHVNVDFVLNHNGTNHRVKFKAEIHNGRAKRASITTG” yielded a protease stability score of -0.271.

The sequence “DEEELKTAETNIRTGNFDDLSKQADENVNVQVGEKTIQGREEFNKVAHHLQKDVDHFEVKHVHNQGDQVNAEAVFVVDGKDLSFNMQMKMHNGRVKSVVFRATDETILRTYKEMLR” yielded a protease stability score of -0.152. Take “DEEELKTIIRDMQSNDEERLANLFDEDAKVDVGDDVLHGREDVTKFFRKVNKRIDHFEIKTYDVRGEEVEVTVEAVVNGQRIKFVWVLTIKNGKAKSAKLSVTDKKQKRILEKNMD”: the protease stability score is 1.12. The same measure for “DEEELMNRFWETMERIMEKGDEDTMRKQVDPNAKAEYGDKTVHGRHQFAKFWIEQARRADHIKFDIKSIDVKPPTIVVRLTVKFNVNGTNHKRDISIVFKVHNGRIVLHNAHEN”: 1.02.

“DEEELQEMIHEFVKALETGNPDDIDKNADEDAKAVYGDKEVEGREQIKHQIKQLHDAIDHLEVKRVSFDNGRAHIHVEMTVNGERFTAKITVEAHNGKIKDVQFDPRLRNAYES” returned a protease stability score of 0.81. Sequence “DEEELQRWAERIVEAFTHGDPQRLSKNVDKNVKVTVGEHEYHGKEELNKILEEIRRQADRIHYKSVDVQGDRANFDMVMNVNGKNVKFTLIVRFENGHAKHLEFDPRMWRVVQR” had a protease stability score of 1.53. In the case of “DEEELQSVKEYIENLQTNNESRLRKYADPNAQITVGDKVIHGMEDFQRQMEEDRRHSRISFKSVEFRYHDGKAVVHAEFTHVDNGQPDEVRVDYRFKLHNGRIKSQNVREVK” it was -0.331. Take “DEEELRELVRNIIEQLQQNNEEELKKQMDKDARMQYGDKEWHGREDIVRHLASVAHQVDHLELESVSVDGNKAHFTFRRQVNGHDETLRAELVVRNGRVVSIKYRHN”: the protease stability score is -0.021.

Take “DEEELREMVKKWLEVVQKGDQKKAVEMYKPNGEWRMIDEEKQGQEDVEKMLRKAQEDGVEFQTRKAKVEGNKAEMHYDMKLGDETVTFTVQLVAHGGRIDRVKVKVTEEAKKLLTKG”: the protease stability score was determined as 0.221. On to “DEEELRQAMKVVKTNDPDNLRKLMDENVRVQVGNKVYHGREEAEKWLERMRKQIDHVNVRRVQIQGDRIVVEMEVTVNGKTIEATLHAKLHNGSLKSLRVEATSEKEKEKIEEANK”, for which the protease stability score is 0.93. In the case of “DEEELSEVANNMERILREGDPDKARSLADENAKAHIGDKKYHGREQIREMIHRMRTRADKVTVNELRITNGVIKIVAEFNVNGRNIEIVVHIRVNNGKISEVNFEVRDPDQYKEIYS” it was 0.386; in that of “DEEELSHFLDVVRTGDFHEMAKMVDPNARINVGDKRVHGREDAETLIKEIQKRADHVEVDSYSIEGDKVRVLMRVNVNGVEVVFILVVQLNNGRIVHRQVDVTNEELEKQVRHANS”, 0.659. In the case of “DEEELSQVVRKVIEALRTGDPDLFQKLADPNAKASVGDKSVHGKEEISSLQKEFSDRVDEIKFTHVSFENGHATIHMELNHNGRHDKVVVKIDVENGKIKHVQIEKS”, the protease stability score is 0.741. The same measure for “DEEELTKTLHEIIKDFVHGDSNQLRENADPNVKLKVGDKEIRGHHEVHKWAKKLRERVDSIKVKDYSATGEKAVAHVIADINGENVEITIVIQAHNGRIKLITVDPEDDKKMKQ”: 0.279; for “DEEELTTLAEQLMDIIEQGDKKRFHQLADPNARMDVGDKRYHGREEMAKNLYDLVERVDTISVDSLSARNGRIKIDMRFKVNGQDVKQILVVRADNGTITRVSIETS”: 0.849. Sequence “DEEEMDRFIKHLERNDEDRWVQMADPNVKVRIGDNTLRGREQLKKWFHRFRKRVDTYSIDSYTVHGEKIKVRAKFQVDGRNVQFSFVVVIKNGRIKSATYEARNEEDQEQDKRDLE” registered a protease stability score of 1.5. The sequence “DEEEMEKVLQVQSTGNPDRYRKLADKDVRLVVGDTEVQGKEKVVKKVHDFHKQIDHQDYESMSAEGNRIDVLLRNVVNGQELVLRVVVRVHNGRIKEVELRARSEEEQSRFDHAWK” came in with a protease stability score of 0.093. As to “DEEEMKEMLEKWHEAVQKGDSDKVKKLYKPNVEWEDSDTQKQGVEVVIKMLQEVQKKGLEFQVRKAKVEGDTAQAVYDLRFGDKTVTFTVELQAQGGRVDKVRVELNEEAKKVLTKG”, the protease stability score was found to be 1.19. In turn, “DEEENKDVATTFVKAVEQGDPDKISHLFDENARAQIGDKEYHGREDLMRMAQEWRDRYDHIEIQDYKVHGNKVTAHFVMQHNGKRERRVMTAEWRNGQIHSMQVHSS” had a protease stability score of 1.37.

The values above are taken from the NTF2 design screens of Basanta et al. (2020).
